Measurements from US20150266962A1 (Pfizer, published 2015).

T1: recombinant mouse IL-13-Rα2 (mIL-13-Rα2) (mouse, UniProt O88786 22-334, limits assumed)
T1 construct: also called murine mIL-13Rα2
T1 sequence (looked up): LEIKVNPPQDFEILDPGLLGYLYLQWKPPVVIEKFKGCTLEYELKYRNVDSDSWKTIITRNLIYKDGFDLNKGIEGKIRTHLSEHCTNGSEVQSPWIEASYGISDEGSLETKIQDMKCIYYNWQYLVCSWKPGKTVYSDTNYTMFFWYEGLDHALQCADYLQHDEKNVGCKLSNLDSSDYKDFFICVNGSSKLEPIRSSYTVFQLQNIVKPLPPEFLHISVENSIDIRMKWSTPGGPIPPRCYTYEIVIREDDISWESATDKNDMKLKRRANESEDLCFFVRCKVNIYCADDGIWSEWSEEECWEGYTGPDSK

T2: recombinant human IL-13 receptor alpha 2 (hIL-13-Rα2) (human, UniProt Q14627 27-343)
T2 construct: Recombinant soluble antigen coated on ELISA plates or used in Biacore; also called rec hIL-13Rα2; rhIL-13Rα2
T2 sequence (looked up): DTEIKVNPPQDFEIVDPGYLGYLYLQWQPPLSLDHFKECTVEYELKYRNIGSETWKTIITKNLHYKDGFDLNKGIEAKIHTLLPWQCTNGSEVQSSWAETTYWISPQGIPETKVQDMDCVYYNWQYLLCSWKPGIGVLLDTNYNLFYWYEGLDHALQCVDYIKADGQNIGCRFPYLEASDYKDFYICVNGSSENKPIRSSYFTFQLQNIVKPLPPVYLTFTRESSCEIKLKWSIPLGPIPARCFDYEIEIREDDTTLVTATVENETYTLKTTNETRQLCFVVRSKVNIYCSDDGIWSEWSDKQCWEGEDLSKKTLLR


How the values were obtained:
[1] = biological target: T1, recombinant mouse IL-13-Rα2 (mIL-13-Rα2); experiment: direct ELISA on coated recombinant mIL-13-Rα2, serially diluted purified ch08
Procedure: The binding of hu07 and hu08 to mouse IL-13-Rα2 was evaluated by direct ELISA. The identity between human and mouse IL-13-Rα2 at the amino acid level is approximately 64%. Recombinant mIL-13-Rα2 or hIL-13-Rα2 (as positive control) was coated onto a 96-well plate. Purified chimeric ch07 and ch08 were serially diluted and added to the antigen coated plate. The bound antibodies were detected by HRP conjugated goat anti-human IgGFc specific secondary antibody.

[2] = biological target: T2, recombinant human IL-13 receptor alpha …; experiment: direct ELISA on coated recombinant hIL-13-Rα2
Procedure: Humanized hu08 binding to recombinant hIL-13-Rα2 was evaluated by a standard direct ELISA. Recombinant hIL-13-Rα2 was coated onto a 96-well plate. Serially diluted chimeric antibodies or humanized antibodies in combinations of heavy and light chains of versions 1.0 and 1.1 e.g. hu08 v1.0 HC/1.0 LC, hu08 v1.0 HC/v1.1 LC, hu08 v1.1 HC/v1.0 LC, and hu08 v1.1 HC/v1.1 LC, were added to the plate and incubated at room temperature for 1-2 hours. The binding was detected by HRP conjugated goat anti-human Ig Kappa.

[3] = biological target: T2, recombinant human IL-13 receptor alpha …; experiment: competition ELISA on coated recombinant hIL-13-Rα2, competitor biotin-ch08
Procedure: A competition ELISA was performed to assess whether hu08 1.0 and hu08 v1.1 compete with ch08 for IL-13-Rα2 binding. Recombinant hIL-13-Rα2 was coated onto 96-well plates at 50 ul of […] in PBS overnight at 4° C. Plates were then blocked and washed following standard ELISA protocol. A 3-fold serially diluted ch08, hu08 1.0 and hu08 v1.1, and negative control ch07 (2× final concentration) were mixed with biotinylated ch08 (2×EC₅₀). 50 μl of the antibody and biotin-ch08 mixture were added to the plate and incubated for 1 hour at room temperature. The amount of biotin-ch08 bound was detected by HRP conjugated streptavidin.

[4] = biological target: T2, recombinant human IL-13 receptor alpha …; experiment: competition ELISA on plate-coated recombinant hIL-13-Rα2; competitor: constant amount of biotin-ch08, detected with streptavidin-HRP
Procedure: (§1) A competition ELISA was performed to examine whether ch07 and ch08 have distinct binding epitopes. Prior to the competition ELISA experiment, ch07 and ch08 were biotinylated. The EC50 of the biotinylated ch07 (biotin-ch07) and ch08 (biotin-ch08) were determined by direct standard ELISA. For the competition ELISA, recombinant hIL-13-Rα2 was coated onto 96-well plates at 50 ul of 2 μg/mL in PBS overnight at 4° C. The plates were then blocked and washed following a standard ELISA protocol. 3-fold serially diluted ch07 and ch08 (2× final concentration) were mixed with a constant amount of biotin-ch07 (FIG. 2A) or biotin-ch08 (FIG. 2B), respectively and were added to the plate and incubated for 1 hour at room temperature. The amount of biotinylated chimeric antibody bound was detected by HRP conjugated streptavidin at 1:5000 for 1 hour. […] Similar results are obtained when the same set of antibodies were used to compete with biotin-ch08 (FIG. 2B).

[5] = biological target: T2, recombinant human IL-13 receptor alpha …; experiment: SPR Biacore, pH 7.4
Procedure: To assess the binding kinetics of the ch07 and ch08 antibodies, SPR (Surface Plasmon Resonance) experiments were conducted on a Biacore® T100 or T200 instrument using a Biacore® human Fab Capture Kit (GE Healthcare). All data was analyzed using the Biacore® T100 evaluation software version 2.0 with a 1:1 Langmuir binding model.
Kₐ, Kd and KD are shown on Table 5. […] At pH6.0, ch07 and ch08 binding affinity to hIL-13-Rα2 are in the low nM range. Dissociation rates of ch08 and ch07 are very similar. Higher KDs at pH6.0 than pH7.4 are due to a slower association rate.

[6] = biological target: T2, recombinant human IL-13 receptor alpha …; experiment: competition ELISA on plate-coated recombinant hIL-13-Rα2; competitor: constant amount of biotin-ch07, detected with streptavidin-HRP
Procedure: as §1

[7] = biological target: T2, recombinant human IL-13 receptor alpha …; experiment: standard ELISA on hIL-13-Rα2 (given as ED50)
[8] = biological target: T2, recombinant human IL-13 receptor alpha …; experiment: competition ELISA on plate (recombinant IL-13-Rα2), competitor biotinylated ch07

Row | binding result [1] | EC50 [2] [nM] | IC50 [3] [nM] | IC50 (read off the curve) [4] [nM] | fold slower dissociation than ch08 [5] [fold] | IC50 (read off the curve) [6] [nM] | EC50 [7] [nM] | IC50 [8] [nM] | Binder
1 | no binding | 0.152 | 1.98 | ~6 |  |  |  |  | chimeric antibody ch08 (antibody, human IgG1, V domains shown, also called ch08Hc + Lc; chimeric antibody 08) VH: EVQLVESGGDLVRPGGSLQLSCAASGFTFSRNGMSWVRQTPDRRLEWVATVSSGGSYIYYADSVKGRFTISRDNARNTLYLQMSSLKSEDTAMYYCARQGTTALATRFFDVWGAGTTVTVSS VL: DIVMTQSHKFISTSVGDRVSITCKASQDVGTAVAWYQQIPGQSPKLLIYSASYRSTGIPDRFTGSGSGTDFSFIISSVQAEDLALYYCQHHYSAPWTFGGGTTLDIK
2 |  |  |  |  | ~2 | ~2 | 0.1 | 2.21 | chimeric antibody ch07 (antibody, human IgG1, V domains shown, also called chimeric antibody 07; biotin-ch07 (biotinylated form)) VH: QVQLKESGPGLVAPSQSLSINCTVSGFSLTKYGVHWIRQSPGKGLEWLGVKWAGGSTDYNSALMSRLTISKDNNKSQVFLKMNSLQSDDSAMYYCARDHRDAMDYWGQGTSVTVSS VL: QVVLTQSPAIMSASPGERVTMTCTASLSVSSTYLHWYHQKPGSSPKLWIYSTSNLASGVPARFSGSGSGTSYSLTISSMEAEDAATYYCHQYHRSPLTFGSGTKLELK
